In the supplement of paper PMC10126150:
± gives the standard deviation of the averaged measurements.

system: ATP; assay: switch fluorescence ratio, 500 uM ATP over buffer (Cy3 cluster intensity, sum of 5 cycles each) (fold (ratio)); higher = stronger signal-on switching upon ATP binding; sequences stand for … in TCGTCGGCAGCGTCAGATGTGTATAAGAGACAGTTTTTTTTTTTTTTTTTTTTTTTTT…TC; conditions: aptamer strand: ATP DNA aptamer (quencher-CACCTGGGGGAGTATTGCGGAGGAAGG + anchor), 100 nM annealed; ATP concentration: 500 uM
Outline: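 Exposure to 500 uM ATP lasted 15 min at 22 °C before imaging, and a selection-buffer image was taken beforehand, for Cy3-labelled switching-strand clusters on a modified Illumina MiSeq flow-cell annealed to 100 nM quencher-labelled ATP aptamer. Five buffer/ATP cycles were run with NaOH stripping and re-annealing between them. The fluorescence ratio per cluster is summed target-cycle over summed buffer-cycle Cy3 intensity, averaged per switch-domain sequence. Clusters outside 100-1000 RFU were excluded.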

Sequence | switch fluorescence ratio
TTGTCGTCAC | 1.01 ± 0.037
TTGTCTAATT | 1.007 ± 0.0081
TTGTCTAGGG | 0.98 ± 0.033
TTGTCTAGGT | 1.01 ± 0.013
TTGTGACAGT | 1.01 ± 0.024
TTGTGACGGG | 1 ± 0.023
TTGTGATAGC | 1.05 ± 0.075
TTGTGATTGC | 1.03 ± 0.089
TTGTGCGAAA | 1.01 ± 0.059
TTGTGCGCGG | 1.04 ± 0.019
TTGTGCGGAC | 1.01 ± 0.04
TTGTGCGTGG | 0.971 ± 0.015
TTGTGCTGGA | 1.04 ± 0.029
TTGTGGAAAA | 0.953 ± 0.03
TTGTGGAAAC | 1.02 ± 0.012
TTGTGGACTT | 0.9995 ± 0.0093
TTGTGGATAA | 1.01 ± 0.0094
TTGTGGCTTA | 0.98 ± 0.036
TTGTGGGGCT | 0.9974 ± 0.009
TTGTGGGGG | 1.0016 ± 0.0009
TTGTGGGGGC | 0.991 ± 0.038
TTGTGGGGTA | 1 ± 0.023
TTGTGGGTAC | 1.0042 ± 0.0004
TTGTGGTGAC | 0.9866 ± 0.0012
TTGTGGTTCC | 1.08 ± 0.14

Sequence | switch fluorescence ratio
TTGTGTTATC | 1.01 ± 0.012
TTGTGTTGTA | 1 ± 0.042
TTGTTAATAG | 1.06 ± 0.062
TTGTTACGGA | 1.01 ± 0.017
TTGTTACGGT | 0.981 ± 0.041
TTGTTAGATT | 0.994 ± 0.031
TTGTTATAGC | 0.987 ± 0.042
TTGTTATGTG | 0.955 ± 0.024
TTGTTCAAGG | 0.981 ± 0.015
TTGTTCAGTT | 1.02 ± 0.036
TTGTTCATTT | 0.994 ± 0.012
TTGTTCTTAA | 1.05 ± 0.11
TTGTTGGGCT | 0.981 ± 0.039
TTGTTGGGGC | 1.02 ± 0.035
TTGTTGGGTT | 1.02 ± 0.061
TTGTTGTACT | 1.02 ± 0.014
TTGTTGTAGG | 0.993 ± 0.041
TTGTTGTGTT | 1.005 ± 0.0098
TTGTTGTTCC | 1.08 ± 0.063
TTGTTTAAGA | 1.03 ± 0.082
TTGTTTACTT | 1.04 ± 0.061
TTGTTTATAG | 0.985 ± 0.03
TTGTTTATGT | 0.9993 ± 0.0082
TTGTTTCAGT | 0.997 ± 0.028
TTGTTTTAGT | 1.06 ± 0.067

Sequence | switch fluorescence ratio
TTGTTTTATA | 0.9733 ± 0.0064
TTGTTTTCAT | 1.04 ± 0.018
TTGTTTTCGG | 0.961 ± 0.02
TTGTTTTGGG | 1 ± 0.019
TTGTTTTGGT | 0.966 ± 0.016
TTGTTTTTGC | 0.9959 ± 0.0089
TTTAAAAGGA | 1.01 ± 0.056
TTTAAACCCT | 1.03 ± 0.024
TTTAAAGAAA | 1.02 ± 0.016
TTTAAAGCAG | 1.01 ± 0.02
TTTAAAGGCC | 0.9682 ± 0.00099
TTTAAAGGGA | 1.06 ± 0.17
TTTAAAGTTG | 1.05 ± 0.04
TTTAAAGTTT | 0.99 ± 0.029
TTTAAATGTT | 0.991 ± 0.031
TTTAAATTGA | 0.986 ± 0.02
TTTAAATTGT | 0.99 ± 0.035
TTTAAGACGG | 0.98439 ± 0.00032
TTTAAGAGGG | 0.978 ± 0.038
TTTAAGCTAC | 4.03 ± 0.57
TTTAAGGGAT | 1 ± 0.041
TTTAAGTCTC | 1.001 ± 0.0062
TTTAAGTGCG | 1.05 ± 0.09
TTTAATAAGG | 0.9962 ± 0.0027
TTTAATACTG | 1.08 ± 0.089

Sequence | switch fluorescence ratio
TTTAATATAG | 1 ± 0.044
TTTAATATAT | 1.02 ± 0.031
TTTAATCGTT | 0.999 ± 0.014
TTTAATGATT | 1.05 ± 0.021
TTTAATGTTT | 1 ± 0.017
TTTAATTCAT | 1.008 ± 0.0088
TTTAATTGTG | 0.9891 ± 0.0082
TTTACAAATT | 1 ± 0.02
TTTACAAGT | 0.982 ± 0.035
TTTACAATGG | 1.058 ± 0.0062
TTTACAGGTA | 0.981 ± 0.021
TTTACCGGAG | 1.15 ± 0.089
TTTACCGGGA | 1.13 ± 0.15
TTTACGAAAG | 1.04 ± 0.044
TTTACGGAAC | 1.244 ± 0.0059
TTTACGGTAA | 1.15 ± 0.019
TTTACGGTTG | 0.996 ± 0.016
TTTACGTCGG | 1.02 ± 0.034
TTTACGTGTT | 0.991 ± 0.012
TTTACTAGCA | 1.04 ± 0.11
TTTACTGCCT | 1.06 ± 0.022
TTTACTGGTG | 1.13 ± 0.012
TTTACTTAGG | 1.04 ± 0.023
TTTACTTTGG | 0.982 ± 0.034
TTTACTTTTC | 1.49 ± 0.75

Sequence | switch fluorescence ratio
TTTAGACAAT | 1.02 ± 0.022
TTTAGACGGG | 0.965 ± 0.028
TTTAGACGGT | 1.02 ± 0.066
TTTAGACGTG | 0.976 ± 0.012
TTTAGAGTCC | 1.05 ± 0.098
TTTAGAGTGC | 1 ± 0.093
TTTAGATATA | 1.031 ± 0.0011
TTTAGATCTT | 0.981 ± 0.012
TTTAGATTGT | 1.01 ± 0.029
TTTAGCAGGG | 1.01 ± 0.026
TTTAGCATGG | 1.01 ± 0.047
TTTAGCGCAT | 1.04 ± 0.06
TTTAGCGTTT | 0.997 ± 0.051
TTTAGCTAGG | 1.01 ± 0.033
TTTAGCTAGT | 1.01 ± 0.032
TTTAGGAGGA | 0.997 ± 0.025
TTTAGGATTT | 0.985 ± 0.027
TTTAGGCTGG | 0.979 ± 0.022
TTTAGGCTTT | 1 ± 0.012
TTTAGGGCGG | 0.994 ± 0.017
TTTAGGGGAG | 0.994 ± 0.022
TTTAGGGTCA | 0.962 ± 0.062
TTTAGGTCAT | 1.01 ± 0.083
TTTAGGTTTT | 1.01 ± 0.021
TTTAGTACCT | 1.2 ± 0.044

Sequence | switch fluorescence ratio
TTTAGTGGGC | 0.9843 ± 0.0081
TTTAGTGGGG | 0.97 ± 0.01
TTTAGTTGTT | 1.01 ± 0.03
TTTAGTTTTT | 0.996 ± 0.042
TTTATAAAAA | 0.998 ± 0.026
TTTATAAAAT | 0.987 ± 0.039
TTTATAAGGT | 0.988 ± 0.012
TTTATAATTA | 0.982 ± 0.013
TTTATAGAAA | 1.05 ± 0.02
TTTATAGCGA | 1.63 ± 0.54
TTTATAGCGG | 0.996 ± 0.015
TTTATAGTAA | 0.98978 ± 0.00052
TTTATAGTCT | 0.99 ± 0.021
TTTATAGTGT | 0.9894 ± 0.0097
TTTATAGTTT | 1.01 ± 0.026
TTTATATGAA | 0.97 ± 0.042
TTTATATGCG | 1 ± 0.027
TTTATATTTT | 1.02 ± 0.034
TTTATCCTTT | 0.98 ± 0.025
TTTATCGGGA | 0.978 ± 0.017
TTTATCGTTG | 0.998 ± 0.025
TTTATCTGAT | 0.965 ± 0.025
TTTATGAGCT | 1.03 ± 0.014
TTTATGAGGA | 1.02 ± 0.021
TTTATGATGC | 1.011 ± 0.0092

Sequence | switch fluorescence ratio
TTTATGCACT | 1.05 ± 0.051
TTTATGCAGC | 1.12 ± 0.16
TTTATGCTGT | 0.976 ± 0.02
TTTATGGAGG | 0.991 ± 0.02
TTTATGGCTA | 1.03 ± 0.011
TTTATGGGAT | 0.986 ± 0.032
TTTATGGGCG | 1.34 ± 0.64
TTTATGTCCA | 0.9923 ± 0.0021
TTTATGTCCG | 1.04 ± 0.042
TTTATGTCGC | 1.01 ± 0.054
TTTATGTCGT | 0.986 ± 0.038
TTTATTACGC | 0.999 ± 0.053
TTTATTAGTA | 0.983 ± 0.024
TTTATTCAGG | 1.02 ± 0.032
TTTATTCCGT | 0.999 ± 0.037
TTTATTGACG | 0.886 ± 0.012
TTTATTGATG | 0.997 ± 0.016
TTTATTGGTT | 1.07 ± 0.1
TTTATTTGGA | 1.018 ± 0.0012
TTTATTTTCG | 1.02 ± 0.037
TTTATTTTCT | 0.991 ± 0.015
TTTCAAAGGG | 0.994 ± 0.015
TTTCAAATCA | 1.01 ± 0.037
TTTCAAGAGT | 1.03 ± 0.034
TTTCAAGCAT | 1.02 ± 0.017

Sequence | switch fluorescence ratio
TTTCAAGGGT | 0.9851 ± 0.0031
TTTCAATCAT | 0.983 ± 0.038
TTTCAATTTT | 0.996 ± 0.026
TTTCACACGT | 1.02 ± 0.024
TTTCACAGCT | 1.03 ± 0.041
TTTCAGGACT | 0.996 ± 0.041
TTTCAGGGAA | 0.99 ± 0.054
TTTCAGGGAG | 1.04 ± 0.056
TTTCAGGTGG | 1.02 ± 0.015
TTTCAGTATG | 1.02 ± 0.023
TTTCAGTTCT | 0.9773 ± 0.005
TTTCATCCCC | 1.07 ± 0.034
TTTCCACAGG | 1.396 ± 0.0082
TTTCCAGTTC | 1.37 ± 0.57
TTTCCCAAAA | 1.04 ± 0.08
TTTCCCAATT | 1.16 ± 0.16
TTTCCCGCTC | 1.93 ± 0.33
TTTCCGATTT | 0.9886 ± 0.0024
TTTCCGGATT | 1.02 ± 0.059
TTTCCGTTAT | 2.41 ± 1.9
TTTCCGTTGA | 1.23 ± 0.32
TTTCCGTTTG | 1.16 ± 0.32
TTTCCTCTGG | 1.95 ± 1.4
TTTCCTGGGG | 1.04 ± 0.039
TTTCCTGTAT | 0.972 ± 0.046
